These results are taken from paper PMC4873976, “Structural basis for haem piracy from host haemopexin by Haemophilus influenzae” (Nature Communications, 2016).

Where a chain is given by its changes, count along the chain named. A value given as a limit tells only on which side of the number the result lay.

Test [1] addresses cysteine-less variant of HxuA^DEL (Haemophilus influenzae) (UniProt P44602). The test is described as follows: ITC; haemopexin or its fragments (~100 μM) in the syringe, HxuA (~10 μM) in the cell; 20 mM Na-phosphate pH 7.0, 25 °C; single-site model; apparent Ka. (In general: Isothermal titration calorimetry measures the heat released or taken up as one component is titrated into another.)

Test [2] deals with T1, HxuA (cysteine-less variant, Cys855 and Cys861 replaced by serines; referred to as HxuA throughout) (Haemophilus influenzae, UniProt P44602 22-905, Cys855 replaced by serine | Cys861 replaced by serine).
T1 construct: also called WT; HxuAWT; source: E. coli BL21 with a pBAD24 derivative harbouring the hxuCBA operon; purified from the culture supernatant (ammonium sulfate, SEC, monoQ)
T1 sequence: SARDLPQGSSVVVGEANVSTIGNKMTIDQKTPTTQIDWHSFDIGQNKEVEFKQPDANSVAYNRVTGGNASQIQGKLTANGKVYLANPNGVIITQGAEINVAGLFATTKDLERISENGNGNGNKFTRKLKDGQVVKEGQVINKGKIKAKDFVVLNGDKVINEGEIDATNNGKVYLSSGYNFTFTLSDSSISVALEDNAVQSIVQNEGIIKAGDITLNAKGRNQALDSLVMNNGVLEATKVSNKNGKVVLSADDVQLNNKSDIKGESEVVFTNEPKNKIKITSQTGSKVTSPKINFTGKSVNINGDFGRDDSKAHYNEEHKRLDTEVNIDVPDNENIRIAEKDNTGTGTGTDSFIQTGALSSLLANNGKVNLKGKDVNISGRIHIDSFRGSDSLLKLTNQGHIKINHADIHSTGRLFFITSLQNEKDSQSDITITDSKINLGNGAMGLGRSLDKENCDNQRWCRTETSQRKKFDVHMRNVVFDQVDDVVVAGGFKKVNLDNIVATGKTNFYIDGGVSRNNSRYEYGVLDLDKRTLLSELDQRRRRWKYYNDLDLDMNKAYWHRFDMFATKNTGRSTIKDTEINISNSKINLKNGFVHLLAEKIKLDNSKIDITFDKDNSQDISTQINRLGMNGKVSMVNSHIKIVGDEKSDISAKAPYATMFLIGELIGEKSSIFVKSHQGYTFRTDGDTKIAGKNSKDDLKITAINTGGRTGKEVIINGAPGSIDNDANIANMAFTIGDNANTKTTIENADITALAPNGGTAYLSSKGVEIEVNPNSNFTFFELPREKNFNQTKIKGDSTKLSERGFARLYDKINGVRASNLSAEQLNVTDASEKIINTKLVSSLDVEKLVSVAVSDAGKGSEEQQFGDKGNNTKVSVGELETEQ
The test is described as follows: ITC; haemopexin or its fragment (~100 uM) in the syringe, HxuA or mutant (~10 uM) in the cell; 25 °C; 20 mM Na-phosphate pH 7.0; single-site model; apparent Ka; mean of one to three experiments. The note with it: both partners purified.

Test [3] has as its target T2, HxuA, cysteine-less variant (cysteines 855 and 861 replaced by serines; referred to as HxuA throughout) (Haemophilus influenzae, UniProt P44602 22-905, cysteine at position 855 replaced by serine | cysteine at position 861 replaced …).
T2 construct: HxuA, haem-haemopexin utilisation protein A (TpsA cargo protein) of Haemophilus influenzae, called full-length, 884 residues, Ser1 to Gln884; Measured mass 96,467.6094 (theoretical 96,469.6926); also called HxuAdm; dm variant; source: E. coli BL21, pBAD24 derivative with the hxuCBA operon; purified from the culture supernatant (ammonium sulfate, SEC, monoQ)
T2 sequence: T1 sequence
The test can be described thus: ITC; haemopexin or its fragments (~100 μM) in the syringe, HxuA (~10 μM) in the cell; 20 mM Na-phosphate pH 7.0, 25 °C; single-site model; apparent Ka. The note with it: both partners purified.

The target in test [4] is T3, HxuA^Asp726Ala, cysteine-less (dm) variant (Haemophilus influenzae, UniProt P44602 22-905, Asp726Ala | Cys855 replaced by serine | Cys861 replaced by serine).
T3 construct: source: E. coli BL21 with a pBAD24 derivative harbouring the hxuCBA operon; purified from the culture supernatant (same protocol as HxuA)
T3 sequence: T1 sequence with D726A
The test can be described thus: ITC; haemopexin or its fragment (~100 uM) in the syringe, HxuA or mutant (~10 uM) in the cell; 25 °C; 20 mM Na-phosphate pH 7.0; single-site model; apparent Ka; mean of one to three experiments. The note with it: both partners purified.

Test [5] has as its target T4, HxuA^DEL (M loop deletion), cysteine-less (dm) variant (Haemophilus influenzae, UniProt P44602 22-905, additional Pro codon replacing the initial 712-728 sequence | Cys855 replaced …).
T4 construct: source: E. coli BL21 with a pBAD24 derivative harbouring the hxuCBA operon; purified from the culture supernatant (same protocol as HxuA)
T4 sequence: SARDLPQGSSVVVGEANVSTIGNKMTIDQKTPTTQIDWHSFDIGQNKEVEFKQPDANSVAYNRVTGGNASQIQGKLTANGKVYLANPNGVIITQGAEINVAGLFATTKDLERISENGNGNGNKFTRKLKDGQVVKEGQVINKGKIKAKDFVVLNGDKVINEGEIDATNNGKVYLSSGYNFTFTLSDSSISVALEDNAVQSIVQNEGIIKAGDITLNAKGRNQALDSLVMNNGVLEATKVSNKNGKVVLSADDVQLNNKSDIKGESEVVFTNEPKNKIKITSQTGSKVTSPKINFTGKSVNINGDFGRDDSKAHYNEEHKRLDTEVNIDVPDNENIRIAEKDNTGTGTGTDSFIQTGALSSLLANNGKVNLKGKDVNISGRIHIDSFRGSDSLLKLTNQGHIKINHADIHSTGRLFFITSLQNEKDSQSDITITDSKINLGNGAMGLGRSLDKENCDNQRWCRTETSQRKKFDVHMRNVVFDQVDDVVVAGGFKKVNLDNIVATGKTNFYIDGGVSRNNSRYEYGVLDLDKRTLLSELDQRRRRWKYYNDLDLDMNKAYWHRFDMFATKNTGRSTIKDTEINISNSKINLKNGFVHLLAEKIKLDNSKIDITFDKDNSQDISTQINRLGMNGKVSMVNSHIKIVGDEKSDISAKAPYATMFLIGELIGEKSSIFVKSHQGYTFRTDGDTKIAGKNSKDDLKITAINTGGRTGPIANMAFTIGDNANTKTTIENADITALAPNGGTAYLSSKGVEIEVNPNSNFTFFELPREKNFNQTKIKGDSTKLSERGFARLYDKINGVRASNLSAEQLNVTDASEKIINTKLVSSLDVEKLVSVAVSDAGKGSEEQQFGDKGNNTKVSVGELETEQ
Described as above. The following applies: both partners purified.

The target of test [6] is T5, cysteine-less variant of HxuA^Asp726Ala (Haemophilus influenzae, UniProt P44602 22-905, Asp726Ala | cysteine at position 855 replaced by serine | cysteine at position …).
T5 construct: HxuA of Haemophilus influenzae, as m1 with Asp726Ala; also called dm variant of HxuA^Asp726Ala; source: E. coli, purified from the supernatant (same protocol as HxuA)
T5 sequence: T1 sequence with D726A
The test is described as follows: ITC; haemopexin or its fragments (~100 μM) in the syringe, HxuA (~10 μM) in the cell; 20 mM Na-phosphate pH 7.0, 25 °C; single-site model; apparent Ka. The note with it: both partners purified.

For “rabbit haem-haemopexin (from UniProt P20058 26-460) (natural protein)”, in test [1], the Ka was determined as 1.7e+08 M⁻¹, the dH is -13 kcal/mol and the stoichiometry N came to 1.

B1: N-terminal domain of rabbit haemopexin (domain or fragment)
chain: VPLTSAHGNVTEGESGTKPEADVIEQCSDGWSFDATTLDDNGTMLFFKDEFVWKSHRGIRELISERWKNFIGPVDAAFRHGHTSVYLIKGDKVWVYTSEKNEKVYPKSLQDEFPGIPFPLDAAVECHRGECQDEGILFFQGNRKWFWDLTTGTKKERSWPAVGNCTSALRWLGRYYCFQGNQFLRFNPVSGEVPPGYPLDVRDYFLSCPGRGHR
notes: haemopexin, rabbit, N-terminal fragment; The results call the domain residues 1-208; the fragment itself ends at Arg214; also called NtHpx; NterHpx; source: trypsin digestion of haemopexin purified from rabbit serum; purified (mono S, SEC)
For the molecule B1, in test [2], the Ka came to 7.6e+07 M⁻¹ and the “stoichiometry N” value was 0.88.

B2: N-terminal domain of rabbit haemopexin (domain or fragment)
chain: B1 chain
notes: haemopexin, rabbit, N-terminal tryptic fragment: cleaved in the linker after Arg 214; also called NtHpx; NterHpx; source: trypsin digestion of haemopexin purified from rabbit serum; purified (mono S, SEC)
Turning to B2, in test [3], the dH is -48.5 kcal/mol and the “stoichiometry N” value is ~1.

B3: rabbit haemopexin (haem-free) (natural protein)
chain: VPLTSAHGNVTEGESGTKPEADVIEQCSDGWSFDATTLDDNGTMLFFKDEFVWKSHRGIRELISERWKNFIGPVDAAFRHGHTSVYLIKGDKVWVYTSEKNEKVYPKSLQDEFPGIPFPLDAAVECHRGECQDEGILFFQGNRKWFWDLTTGTKKERSWPAVGNCTSALRWLGRYYCFQGNQFLRFNPVSGEVPPGYPLDVRDYFLSCPGRGHRSSHRNSTQHGHESTRCDPDLVLSAMVSDNHGATYVFSGSHYWRLDTNRDGWHSWPIAHQWPQGPSTVDAAFSWEDKLYLIQDTKVYVFLTKGGYTLVNGYPKRLEKELGSPPVISLEAVDAAFVCPGSSRLHIMAGRRLWWLDLKSGAQATWTELPWPHEKVDGALCMEKPLGPNSCSTSGPNLYLIHGPNLYCYRHVDKLNAAKNLPQPQRVSRLLGCTH
notes: Glycoprotein from serum; also called Hpx; hemopexin; source: purified from rabbit serum (Biosera)
B3: the Ka in test [4], in test [5] and in test [2] was > 1e+09 M⁻¹ in each case. Further, the “stoichiometry N” value stood at 0.68 in test [4], 1.07 in test [5] and 0.8 in test [2].

B4: rabbit haem-haemopexin (natural protein)
chain: B3 chain
notes: also called He-Hpx; source: purified from rabbit serum (Biosera), haem-loaded
On to B4, for which, in test [3], the Ka was > 1e+09 M⁻¹ and the dH is -39.8 kcal/mol. Also, in test [6], the Ka stood at 2.9e+06 M⁻¹ and the dH is -12.8 kcal/mol.

B5: rabbit haemopexin (haem-free) (natural protein)
chain: B3 chain
notes: haemopexin, rabbit, serum glycoprotein, called full-length; two MMP domains (residues 1-208 and 228-435) joined by a linker; Glycoprotein from serum; also called Hpx; full-length haemopexin; source: purified from rabbit serum (Biosera): perchloric acid, PEG 3400, S-sepharose, mono Q, SEC
As for B5, the dH in test [3] was -52.7 kcal/mol.

B6: rabbit haem-haemopexin (natural protein)
chain: B3 chain
modifications: haem bound
notes: Same chain as Dm4, with haem; also called He-Hpx; HeHpx; source: purified from rabbit serum (Biosera), haem-loaded
Take B6: the “stoichiometry N” value in test [4] came out at 1.06; in test [5] it was 0.89; in test [2] it was 0.96.

The term stoichiometry N denotes the number of molecules, sites or subunits per partner or assembly.
